Data reported in patent US20260274955A1 (JANUX THERAPEUTICS, published 2026).

molecular target: Anti-CD28 Fab (SEQ ID NOs: 202, 203); assay: phage binding ELISA on captured Fab;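 further: clonal phage supernatants added briefly to wells pre-incubated with CD28 antigen or with blocking buffer only, then washed, bound phage read by ELISA using HRP-coupled anti-M13 antibody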
Sequence (VH, as listed by the source, chain 1 of 2): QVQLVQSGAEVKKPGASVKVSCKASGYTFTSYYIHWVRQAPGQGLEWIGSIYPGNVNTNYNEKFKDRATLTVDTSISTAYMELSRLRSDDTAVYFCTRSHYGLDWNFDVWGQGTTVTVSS
Sequence (VL, as listed by the source, chain 2 of 2): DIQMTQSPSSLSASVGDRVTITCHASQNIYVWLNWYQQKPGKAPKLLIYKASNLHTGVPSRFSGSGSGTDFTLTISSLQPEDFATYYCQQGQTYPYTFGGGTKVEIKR
Experimental: Clonal phage were harvested as crude supernatants and screened via standard ELISAs. […] Prior to the addition of clonal phage, wells were incubated with blocking buffer and CD28 antigen or blocking buffer alone. Without washing or aspirating, clonal phage supernatants were then added to the wells and incubated for a short time. Wells were then washed followed by detection of bound phage using a horse radish conjugated anti-M13 antibody.

**Q.** Which “Anti-CD28 Fab signal” value does the source give for WCWDYKLWVPTQCP [Phage-7] here?
**A.** The value was 2.27.

**Q.** YCEGHSPEYMAKCL [Phage-74] was tested. Which “Anti-CD28 Fab signal” value did it give?
**A.** The value was 2.35.

**Q.** YCDGHLPEYMSKCL [Phage-75] was tested. Which “Anti-CD28 Fab signal” value did it give?
**A.** Its value is 2.35.

**Q.** With YCDGHLPQYMAKCL [Phage-76] as the binder, how does the “Anti-CD28 Fab signal” value read?
**A.** Its value is 2.35.

**Q.** Which “Anti-CD28 Fab signal” value does the source give for YCMGHSHEHIWKCL [Phage-23] here?
**A.** Its value is 0.87.

**Q.** DCPWLSGFSRPLLC [Phage-19] was tested. Which “Anti-CD28 Fab signal” value did it give?
**A.** Its value is 1.27.

**Q.** PDCQTILFKPWCVR [Phage-4] was tested. Which “Anti-CD28 Fab signal” value did it give?
**A.** The value was 2.09.

**Q.** How did the “Anti-CD28 Fab signal” value turn out when PDCHTILFKPWCVR [Phage-16] was run?
**A.** The value was 1.

**Q.** WCWDYKLWVPMTCP [Phage-11] was tested. Which “Anti-CD28 Fab signal” value did it give?
**A.** The value was 2.51.

**Q.** For SCAAGASYAWPYCL [Phage-18], which “Anti-CD28 Fab signal” value is on record?
**A.** Its value is 1.49.

**Q.** For YCAGHAWQYINKCL [Phage-13], which “Anti-CD28 Fab signal” value is on record?
**A.** The value was 0.64.

**Q.** With ACDTYFAGMINECF [Phage-5] as the binder, how does the “Anti-CD28 Fab signal” value read?
**A.** The value was 0.92.

**Q.** With GCQYPWAFDAMSCP [Phage-6] as the binder, how does the “Anti-CD28 Fab signal” value read?
**A.** The value was 2.38.

**Q.** With WCWDYREWVPMTCP [Phage-8] as the binder, how does the “Anti-CD28 Fab signal” value read?
**A.** Its value is 2.3.

**Q.** How did the “Anti-CD28 Fab signal” value turn out when WCWYYREWVPMTCP [Phage-14] was run?
**A.** Its value is 1.85.

**Q.** With YCAGHSPINIGKCL [Phage-10] as the binder, how does the “Anti-CD28 Fab signal” value read?
**A.** The value was 1.49.

**Q.** With YCAGHSHEYLAKCE [Phage-24] as the binder, how does the “Anti-CD28 Fab signal” value read?
**A.** Its value is 0.86.

**Q.** How did the “Anti-CD28 Fab signal” value turn out when YWSCFQIPFTCFYF [Phage-1] was run?
**A.** Its value is 1.44.

**Q.** With YCDGHSPMYILKCL [Phage-79] as the binder, how does the “Anti-CD28 Fab signal” value read?
**A.** The value was 2.34.

**Q.** How did the “Anti-CD28 Fab signal” value turn out when YCAGHTEEHYVKCM [Phage-22] was run?
**A.** Its value is 0.62.

**Q.** FMCLPQNPHPLCFK [Phage-3] was tested. Which “Anti-CD28 Fab signal” value did it give?
**A.** Its value is 0.84.

**Q.** With YCAGHMPQYEVKCL [Phage-21] as the binder, how does the “Anti-CD28 Fab signal” value read?
**A.** Its value is 0.22.

**Q.** WECLKYTEANACTY [Phage-2] was tested. Which “Anti-CD28 Fab signal” value did it give?
**A.** The value was 1.55.

**Q.** For ECHWSMWAVGHACF [Phage-9], which “Anti-CD28 Fab signal” value is on record?
**A.** Its value is 1.77.

**Q.** For YWYCSPSIVRCVLV [Phage-15], which “Anti-CD28 Fab signal” value is on record?
**A.** Its value is 1.51.

**Q.** Which “Anti-CD28 Fab signal” value does the source give for DCWWMFESYPGRCI [Phage-12] here?
**A.** Its value is 1.65.

**Q.** How did the “Anti-CD28 Fab signal” value turn out when YCAGMSTIQLWLKC [Phage-20] was run?
**A.** Its value is 2.16.

**Q.** WICDKSGSIMLCRA [Phage-17] was tested. Which “Anti-CD28 Fab signal” value did it give?
**A.** The value was 0.91.
